# From US10487118B2, “Factor involved in latent infection with herpes virus, and use thereof” (Virus Ikagaku Kenkyusho Inc., priority 2007, dated 2019)
# T1: calcium-signal modulating cyclophilin ligand (CAML) (Homo sapiens, UniProt P49069)
# T1 construct: made in house; host or cells: yeast (two-hybrid prey from a human fetal brain cDNA library); E. coli (pull-down); 293T cells (transfected, co-precipitation)
# T1 sequence (P49069 1-296): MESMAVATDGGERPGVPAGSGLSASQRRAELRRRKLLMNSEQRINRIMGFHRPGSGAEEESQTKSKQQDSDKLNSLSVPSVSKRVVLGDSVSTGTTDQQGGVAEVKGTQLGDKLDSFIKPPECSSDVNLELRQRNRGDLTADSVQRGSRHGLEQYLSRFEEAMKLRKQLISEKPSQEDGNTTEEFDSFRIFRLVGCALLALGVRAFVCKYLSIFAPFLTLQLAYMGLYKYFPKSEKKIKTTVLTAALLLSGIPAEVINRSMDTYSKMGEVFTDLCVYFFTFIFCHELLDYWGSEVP
# B1: SITH-1: protein expressed specifically during latent infection with HHV-6; approximately 17.5 kDa, 159 amino acids, SEQ ID NO: 1 (protein)
# chain: MGYEEKVSATGKTRLKILACLIVLILAAAITMLTLEIISNQKRTTTDLEAVTVALKHVSTSLASCTESTTSVHTDSVTSQPTKNKESRKKIEGKSPSWVQALTTASGIILLFCIMMIFITCSWTTEKDTEKSEVQSYASSVETLDSLNEAIIPKTEMNV
# modifications: Human herpesvirus 6
# Key:
# [1] = target: T1, calcium-signal modulating cyclophilin ligand (CAML); assay: Binding of SITH-1 to host protein (yeast two-hybrid, in vitro pull-down, co-precipitation); conditions: yeast two-hybrid with human fetal brain cDNA library; GST pull-down; co-precipitation in 293T cells
# Description: To study the function of the protein SITH-1, a host protein to which the protein SITH-1 would bind within cells was identified. This was performed by screening of a human fetal brain cDNA library by means of yeast two-hybrid assay with the protein SITH-1 used as a bait.
# [2] = system: astrocyte-like glial cell line (U373); assay: Fluorescent antibody staining of CAML in SITH-1-expressing U373 cells; assay type: cell-based; conditions: SITH-1 expressed in U373 vs untreated U373 cells
# Description: CAML is a protein that has been reported to show strong expression in lymphocytes and in a brain, and it is known that CAML has ability to increase an intracellular calcium concentration. Thus, in order to see whether the protein SITH-1 would be mediated by CAML to increase the intracellular calcium concentration, both an astrocyte-like glial cell line (U373) in which SITH-1 had been expressed and untreated U373 cells were stained by the fluorescent antibody technique using anti-SITH-1 antibodies and anti-CAML antibodies.
# [3] = system: astrocyte-like glial cell line (U373); assay: Intracellular calcium concentration measured with Fura2 after thapsigargin stimulation; assay type: cell-based; conditions: SITH-1 transferred via retrovirus vector into U373, thapsigargin (TG) stimulation, vs vector only
# Description: In another experiment, two samples were prepared; one sample was prepared by transferring SITH-1 into an astrocyte-like glial cell line (U373) via a retrovirus vector, and the other sample was prepared by introducing only the vector into U373. Each sample was stimulated with thapsigargin (TG), and an intracellular calcium concentration was measured using Fura2.
# mice [4] = assay: Tail suspension test; assay type: in vivo; conditions: SITH-1 transferred using adenovirus vector, GFAP promoter, injected into brains of newborn mice
# Description: (§1) SITH-1 having a glial fibrillary acidic protein (GFAP) promoter linked upstream of its open reading frame was injected into the brains of newborn mice using an adenovirus vector or a retrovirus vector. GFAP is a protein expressed specifically in glial cells such as astrocytes.
# (§2) A tail suspension test and a forced swimming test were conducted to evaluate mental disorders; these tests are commonly used to observe patients with depression or manic-depressive illness. Specifically, mice into which SITH-1 was transferred using an adenovirus vector were subjected to a tail suspension test. […] Subsequently, mice into which SITH-1 was transferred using a retrovirus vector were subjected to a forced swimming test.
# mice [5] = assay: Forced swimming test; assay type: in vivo
# Description: as §1, §2
# mice [6] = assay: Startle response (prepulse inhibition); assay type: in vivo; conditions: SITH-1 transferred using adenovirus vector
# Description: as §1
# The present inventors also measured a prepulse inhibition in order to check for any abnormality in a startle response, which abnormality is to be found in patients with manic-depressive illness and schizophrenia. Specifically, mice into which SITH-1 was transferred using the adenovirus vector were evaluated for a startle response by measuring the prepulse inhibition.
# mice [7] = assay: Motor activity in terms of wheel running activity; assay type: in vivo; conditions: vs EGFP control mice
# Description: Next, an open reading frame of SITH-1 was linked downstream of a GFAP promoter, and expressed in glial cells of mice using an adenovirus vector; three weeks later, the mice were measured for their motor activity in terms of wheel running activity.
# Subsequently, an open reading frame of SITH-1 was linked downstream of a GFAP promoter, and expressed in glial cells of mice using a lentivirus vector; eight weeks later, the mice were measured for their motor activity in terms wheel running activity.
molecule,measurement,setting,value
B1,binding to CAML,[1],bind strongly
same,amount of CAML,[2],more CAML was found than in the untreated U373 cells
same,intracellular calcium concentration,[3],considerably higher
same,immobile time,mice [4],markedly shorter immobile time
same,immobile time,"mice [5]; retrovirus vector at HIGH titer, vs EGFP control mice",longer immobile time
same,immobile time,mice [5]; retrovirus vector at LOW titer,shorter immobile time
same,prepulse inhibition,mice [6],markedly lower prepulse inhibition
same,motor activity (wheel running activity),"mice [7]; adenovirus vector, three weeks later",motor activity enhanced
same,motor activity (wheel running activity),"mice [7]; lentivirus vector, eight weeks later",motor activity suppressed
